Source: patent publication US20240239907A1 (EDELWEISS IMMUNE, published 2024)
Numbering of substitutions follows the chain as printed.

Experiments:
[1] = target: T1, cynomolgus monkey CXCR6 (cynomolgus monkey, UniProt Q9BDS6 1-343); experiment: screening on cells overexpressing CXCR6, one single concentration, yes/no
T1 construct: also called cyno-CXCR6; cyno monkey CXCR6
T1 sequence: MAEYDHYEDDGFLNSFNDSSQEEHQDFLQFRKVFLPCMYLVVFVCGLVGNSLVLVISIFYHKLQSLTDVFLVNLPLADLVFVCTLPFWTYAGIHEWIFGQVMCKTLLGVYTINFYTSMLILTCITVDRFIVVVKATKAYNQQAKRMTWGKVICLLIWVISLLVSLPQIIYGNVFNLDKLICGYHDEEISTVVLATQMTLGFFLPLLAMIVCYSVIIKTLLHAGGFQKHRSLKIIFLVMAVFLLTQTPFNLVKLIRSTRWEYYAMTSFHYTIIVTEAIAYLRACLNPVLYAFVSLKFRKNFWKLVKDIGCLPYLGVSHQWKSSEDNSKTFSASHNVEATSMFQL

[2] = target: T2, human CXCR6 (human, UniProt O00574 1-342); experiment: as above
T2 construct: also called hu-CXCR6; wild type human CXCR6

[3] = target: T3, N-terminal fusion protein linking the extracellular N terminus of human CXCR6 and the Fc region of human IgG1 (human, not fully specified); experiment: antibody pre-incubated with N-terminus-Fc fusion before staining human CXCR6 cells, flow cytometry (FIG. 12B)
T3 construct: not shown: Fc region of human IgG1
T3 chain: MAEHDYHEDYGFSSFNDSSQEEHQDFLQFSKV
Experimental: Three candidate antibodies that bind only to human CXCR6 and three candidate antibodies that bind to both human and cyno CXCR6 were further analyzed to locate their epitope residues. An N-terminal fusion protein was generated by linking the extracellular N terminus of human CXCR6 and the Fc region of human IgG1. Prior to staining cells over-expressing human CXCR6, the candidate antibodies (1 μg/ml) were pre-incubated with the N-terminal fusion protein (25 μg/ml) for 15 minutes at room temperature. A commercial antibody (R&D system, Minneapolis, MN) that only binds to human CXCR6 but not cyno- or mouse-CXCR6, was used as a control antibody.

[4] = target: T2, human CXCR6; experiment: flow cytometry on human CXCR6 over-expressing cells pre-incubated with competitor huCXCL-16 at 1,500 ng/ml (FIG. 16)
Experimental: (§1) After washing and staining with secondary antibody, cells were analyzed by flow cytometry. The ED₅₀ for huCXCL-16 binding to human CXCR6 is 10-50 ng/ml. Thus, 1,500 ng/ml huCXCL-16 is an overwhelming concentration for competing with chimeric Genovac2-C1. In the absence of huCXCL-16, the ED₅₀ for chimeric Genovac2-C1 binding to human CXCR6 was 0.5 μg/ml (FIG. 16). In the presence of huCXCL-16 (1,500 ng/ml), the ED₅₀ for chimeric Genovac2-C1 binding to human CXCR6 was 1.5 μg/ml (FIG. 16). Accordingly, the human/mouse chimeric mAb retains the binding specificity and affinity in the presence of CXCL-16.

[5] = target: T2, human CXCR6; experiment: flow cytometry on human CXCR6 over-expressing cells, no huCXCL-16 (FIG. 16)
Experimental: as §1

[6] = target: T1, cynomolgus monkey CXCR6; experiment: description of the chimeric clones used in the ADCC example
[7] = target: T1, cynomolgus monkey CXCR6; experiment: flow cytometry on cells overexpressing CXCR6, serial dilutions of antibody (FIG. 11)
Experimental: Wild type C57BL/6 mice were immunized and boosted with a full-length human CXCR6-vector. Prior to immunization, the vector was tested for cell surface expression of native human CXCR6 on transfected mammalian cell lines by flow cytometry to ensure a successful immunization and screening. Genetic immunization was performed by ballistically delivering DNA-coated gold particles into the skin of wild type C57BL/6 mice to elicit a target-specific immune response. After the serum test showing satisfactory titer of antibody binding to both human CXCR6 and cyno monkey CXCR6, mice were sacrificed. A single B cell platform was used to sequentially screen bone marrow antibody-producing plasma cells for binding to both human and cyno monkey CXCR6. The conventional hybridoma technique was used on splenocytes and lymph node cells. […] After sequencing the VH and VL, clones with distinct CDRs were further expressed as full-length murine antibodies or human chimeric antibodies. […]
Cells overexpressing human-CXCR6 (hu-CXCR6), cyno monkey CXCR6 (cyno-CXCR6) or mouse CXCR6 were cultured in DMEM medium containing 10% FCS. […] After two rounds of washing with PBS/0.5% BSA buffer, cells were further stained with fluorescence dye-labeled secondary antibody. After two more rounds of washing, cells were resuspended in PBS/0.5% BSA, fixed, and collected by flow cytometry and analyzed.

T2 sequence (O00574 whole entry): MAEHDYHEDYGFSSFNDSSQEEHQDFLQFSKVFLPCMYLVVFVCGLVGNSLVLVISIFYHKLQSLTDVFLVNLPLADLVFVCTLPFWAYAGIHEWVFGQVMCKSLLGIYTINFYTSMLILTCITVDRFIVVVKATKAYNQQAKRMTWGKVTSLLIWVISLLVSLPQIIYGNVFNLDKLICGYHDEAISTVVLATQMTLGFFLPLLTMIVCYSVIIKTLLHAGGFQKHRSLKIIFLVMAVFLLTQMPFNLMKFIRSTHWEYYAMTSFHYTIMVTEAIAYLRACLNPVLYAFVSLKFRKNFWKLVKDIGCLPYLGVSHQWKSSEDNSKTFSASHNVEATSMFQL

B1: Beacon2-G5 (antibody, V domains shown)
VH: EVQLVESGGDLVKPGGSLKLSCAASGFTFSSYGMSWVRQTPDKRLEWVATISSRGSYTYYPDSVKGRLTISRENAKNTLSLQMSSLKSEDTAMYYCARRVFPYWFFDVWGAGTTVTVSS
VL: DIVMTQSHKFMSTSVGDRVSITCKASQDVSTAVAWYQQKSGQSPKLLIYSASYRYTGVPDRFTGSGSGTDFTFTISSVQAEDLAVYYCQQHYTTPYTFGGGTKLEIK
notes: Mouse-derived
binding result [1]: binds | binding result [2]: binds | binding result [3]: no binding

B2: chimeric Genovac2-C1 (antibody, V domains shown)
VH: DVKLVESGGGLVKPGGSLKLSCAASGFTFSSYTMSWVRQTPEKRLEWVATISSGGSYTYYPDSVKGRFTISRDNAKNTLYLQMSSLKSEDTAMYYCTRGGGNYPFWFFDVWGAGTTVTVSS
VL: DIQMTQSPASLSASVGETVTITCRASENIYSYLAWYQQKQGKSPQLLVYNAKTLAEGVPSRFSGSGSGTQFSLKIKSLQPEDFGSYYCQHHYGIPRTFGGGTKVETK
notes: also called Genovac2-C1 human chimeric mAb; human/mouse chimeric mAb
EC50 [4]: 1.5 mg/L | EC50 [5]: 0.5 mg/L | binding result [6]: binds

B3: Genovac1-G2 (antibody, V domains shown)
VH: DVQLQESGPGLVKPSQSLSLTCSVTGYSITSGYYWNWIRQFPGNKLEWMGYIRYDGSNNYNPSLKNRISITRDTSKNQFFLKLNSVTTEDTATYYCARDGYSTYFDYWGQGTTLTVSS
VL: B2 VL with K76N, I94T, R96W, V104L, T106I
notes: Mouse-derived
binding result [2]: binds | binding result [7]: binds
